Where two headings read alike, the source gives them in different places.
Columns and labels:
[1] = target: T1, human SLC34A2 (human, UniProt O95436 1-690); test: FACS, OVCAR3 cells
T1 sequence (looked up): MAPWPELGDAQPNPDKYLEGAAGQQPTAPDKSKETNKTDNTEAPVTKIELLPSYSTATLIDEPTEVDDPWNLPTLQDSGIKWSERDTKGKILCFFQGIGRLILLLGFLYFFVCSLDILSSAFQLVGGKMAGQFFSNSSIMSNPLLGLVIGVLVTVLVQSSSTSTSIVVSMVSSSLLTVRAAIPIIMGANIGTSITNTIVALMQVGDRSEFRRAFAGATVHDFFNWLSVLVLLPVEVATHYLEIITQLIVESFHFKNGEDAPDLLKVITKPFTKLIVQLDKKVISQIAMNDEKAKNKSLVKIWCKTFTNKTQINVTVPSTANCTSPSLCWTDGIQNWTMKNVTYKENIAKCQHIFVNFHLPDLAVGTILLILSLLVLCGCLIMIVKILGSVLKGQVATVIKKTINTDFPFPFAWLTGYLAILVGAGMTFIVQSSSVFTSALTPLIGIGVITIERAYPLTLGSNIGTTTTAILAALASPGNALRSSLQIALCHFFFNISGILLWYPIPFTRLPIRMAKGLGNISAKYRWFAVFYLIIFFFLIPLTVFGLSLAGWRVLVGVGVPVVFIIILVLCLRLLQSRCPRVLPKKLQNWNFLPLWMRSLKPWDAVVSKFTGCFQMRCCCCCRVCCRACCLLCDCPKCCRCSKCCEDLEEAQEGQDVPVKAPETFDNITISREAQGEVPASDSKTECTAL

[2] = target: T1, human SLC34A2; test: FACS, RMG-1 cells
Description: (§1) In another testing, cell based binding of hu Abs on human SLC34A2 expressing cells were assessed using flow cytometry. Briefly, the HEK293/H_SLC34A2, OVCAR3 and RMG-1 cells were incubated with hu Abs. After incubation at 4° C. for 60 minutes, the cells were washed with FACS buffer twice, then stained with fluorescent conjugated secondary antibody at 4° C. for 30 minutes. After that the cells were washed twice and analyzed by flow cytometry.

[3] = target: T1, human SLC34A2; test: cell-based or functional assay
[4] = target: T2, Rhesus SLC34A2 (Rhesus, UniProt F7HDA3 1-690); test: FACS, HEK293/Rhesus SLC34A2 cells
T2 construct: whole, on cells
T2 sequence: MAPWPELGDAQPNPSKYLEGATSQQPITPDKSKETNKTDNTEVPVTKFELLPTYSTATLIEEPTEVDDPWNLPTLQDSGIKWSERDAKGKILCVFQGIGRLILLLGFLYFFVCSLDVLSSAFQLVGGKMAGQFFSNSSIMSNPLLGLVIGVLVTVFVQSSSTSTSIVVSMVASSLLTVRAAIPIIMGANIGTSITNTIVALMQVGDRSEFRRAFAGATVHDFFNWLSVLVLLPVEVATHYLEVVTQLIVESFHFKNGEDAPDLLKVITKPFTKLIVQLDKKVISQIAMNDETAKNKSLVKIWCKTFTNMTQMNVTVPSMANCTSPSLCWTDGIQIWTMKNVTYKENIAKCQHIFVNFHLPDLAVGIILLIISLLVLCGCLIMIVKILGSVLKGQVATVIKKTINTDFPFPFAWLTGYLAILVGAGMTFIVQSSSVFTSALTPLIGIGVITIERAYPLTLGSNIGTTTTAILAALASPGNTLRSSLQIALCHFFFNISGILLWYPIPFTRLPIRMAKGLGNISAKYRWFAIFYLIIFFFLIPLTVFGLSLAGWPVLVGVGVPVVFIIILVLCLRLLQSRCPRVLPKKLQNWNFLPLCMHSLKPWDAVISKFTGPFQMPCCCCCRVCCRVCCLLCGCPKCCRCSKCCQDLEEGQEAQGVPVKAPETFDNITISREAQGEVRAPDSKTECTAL

[5] = target: T1, human SLC34A2; test: FACS, OVCAR3 cells
Description: as §1

[6] = target: T2, Rhesus SLC34A2; test: FACS, HEK293/Rhesus SLC34A2 cells; remark: listed apart in the source
[7] = target: T1, human SLC34A2; test: FACS, HEK293/human SLC34A2 cells
Description: The PTM-derisked VH chains were first tested for their impact on target binding. Cell based binding of PTM Abs on human SLC34A2 expressing cells were assessed using flow cytometry. Briefly, the HEK293/H_SLC34A2 cells were incubated with PTM Abs (from 200 nM, 4 folds dilution, 8 points). After incubation at 4° C. for 60 minutes, the cells were washed with FACS buffer twice, then stained with fluorescent conjugated secondary antibody at 4° C. for 30 minutes. After that the cells were washed twice and analyzed by flow cytometry.

[8] = target: T1, human SLC34A2; test: FACS, OVCAR3 cells; remark: listed apart in the source
[9] = target: T1, human SLC34A2; test: FACS, HEK293/human SLC34A2 cells; remark: listed apart in the source
Description: as §1

[10] = target: T1, human SLC34A2; test: FACS, OVCAR3 cells; remark: listed apart in the source
[11] = target: T1, human SLC34A2; test: FACS, HEK293/human SLC34A2 cells; remark: listed apart in the source
Description: Briefly, OVCAR3 cells or HEK293 cells expressing human SLC34A2 were incubated with chimeric antibodies (from 200 nM, 4 folds dilution, 8 points). After incubation at 4° C. for 60 minutes, the cells were washed with FACS buffer twice, then stained with fluorescent conjugated secondary antibody at 4° C. for 30 minutes. After that the cells were washed twice and analyzed by flow cytometry.

[12] = target: T1, human SLC34A2; test: FACS, RMG-1 cells; remark: listed apart in the source
Outline: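 Flow-cytometric binding of chimeric antibodies (8-point, 4-fold dilutions from 200 nM) to RMG-1 cells, 60 min at 4° C, followed by fluorescent secondary antibody for 30 min at 4° C.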

[13] = target: T1, human SLC34A2; test: cell-based or functional assay; remark: listed apart in the source
[14] = target: T2, Rhesus SLC34A2; test: FACS, HEK293/Rhesus SLC34A2 cells; remark: listed apart in the source
[15] = target: T1, human SLC34A2; test: cell-based or functional assay; remark: listed apart in the source
[16] = target: T1, human SLC34A2; test: FACS, OVCAR3 cells; remark: listed apart in the source
Outline: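 Flow cytometry binding: cells (OVCAR3, or HEK293 transfected with human SLC34A2) exposed 60 min at 4° C to chimeric hIgG1, 8-point 4-fold series starting 200 nM. Washed, stained 30 min at 4° C with fluorescent anti-human secondary, then analysed.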

[17] = target: T1, human SLC34A2; test: FACS, OVCAR3 cells; remark: listed apart in the source

**Q.** How did the EC50 [1] turn out when hIgG1 Isotype (antibody) was run?
**A.** 2900 nM

**Q.** What about the Top (MFI) [1] of the same molecule?
**A.** 1570 MFI

B1: 91C9F1.p1 hIgG1 (antibody, V domains shown)
VH: EVQLQQSGPELVKPGTSVKISCKTSGFFFTEYIIHWVKQSHGRSLEWIGGIIPNNDVTNYKQNFRGKAALTADKSSNTAYMELRSLTSEDSAVYYCARWRNAYYSAMDSWGQGTSVTVSS
VL: DIVVTQSHKFMSTSLGDRVSITCTASQDVGTAVAWYQQKPGHSPKLLIYWASTRHTGVPERFTGSGSGTDFTLTITNVQSEDLADYFCQQYRTSPLTFGVGTKLELK
notes: PTM-derisked chimeric, hIgG1; also called 91C9F1.pl hIgG1
**Q.** What does the source list for B1?
**A.** EC50 [2]: 1.09 nM; Top [2]: 9690 MFI; ADCC reporter EC50 [3]: 3.31 nM; ADCC reporter Top (MFI) [3]: 143000 MFI; EC50 [4]: 0.8 nM; Top (MFI) [4]: 7970 MFI; EC50 [5]: 1.1 nM; Top [5]: 19500 MFI; EC50 [6]: 2.8 nM; Top (MFI) [6]: 26400 MFI; EC50 [7]: 0.68 nM; Top (MFI) [7]: 28200 MFI; EC50 [8]: 1 nM; Top (MFI) [8]: 63500 MFI; EC50 [9]: 2.29 nM; Top [9]: 32300 MFI; EC50 [10]: 2.29 nM; Top (MFI) [10]: 32300 MFI

B2: xi71F7D4 hIgG1 (antibody, V domains shown)
VH: DVKLVESGGDLVKLGGSLKLSCAASGFTFSNYYMSWVRQTPEKRLELVAVINSNGGTTYYPDNMKGRFTISRDNAKNTLYLQTSSLKSEDTALYYCGRHEHYYGTNIAWFAYWGQGTLVTVSA
VL: DIVMTQSHKFMSTSVGDRVSITCKASQDVTTAVAWYQQKPGQSPKLLIYWASTRHTGVPDRFTGSGSGTDHTLTISSVQAEDLALYYCQQHYSTPVTFGGGTKLEIK
notes: chimeric, hIgG1
**Q.** For B2, which EC50 [11] is on record?
**A.** 2.11 nM

**Q.** And the “Top (MFI)” value [11]?
**A.** 47900 MFI

**Q.** And the EC50 [12]?
**A.** 8.36 nM

**Q.** And the “Top (MFI)” value [12]?
**A.** 10200 MFI

**Q.** What about the “cytotoxicity EC50” value [13] of the same molecule?
**A.** 0.83 nM

**Q.** What about the “cytotoxicity Inhibition %” value [13] of the same molecule?
**A.** 99.4%

**Q.** And the Top (MFI) [14]?
**A.** 5.4e+06 MFI

**Q.** What about the “ADCC reporter EC50” value [15] of the same molecule?
**A.** 3.6 nM

**Q.** What about the “ADCC reporter Top (MFI)” value [15] of the same molecule?
**A.** 247000 MFI

**Q.** What about the EC50 [16] of the same molecule?
**A.** 7.86 nM

**Q.** What about the “Top (MFI)” value [16] of the same molecule?
**A.** 28900 MFI

B3: 63A11D5B4 VH_P1/VL hIgG1 (antibody, V domains shown)
VH: QVQLQQPGAELVKPGASVKMSCRTSGYTFITYNMHWVKQTPGQGREWIGAIYPGSGDTSYNQKFKGKATLTADKSSSTAYMQLNSLTSEDSAVYYCSISTIITTGAVDYWGQGTSVTVAS
VL: DIVMTQSHKFMSTSVGDRVSITCKASQDVGTAVAWYQQKAGQSPKLLIYWTSTRHTGVPDRFTGSGSGTDFTLIIRSLQSEDLADYFCQQYSRIPLTFGSGTKLEIK
notes: PTM-derisked chimeric, hIgG1; that P1 is the SG version follows from the humanized .p1 chains; also called 63A11D5B4.p1 hIgG1
**Q.** B3 was tested. Which EC50 [2] did it give?
**A.** 12.5 nM

**Q.** And the Top [2]?
**A.** 11700 MFI

**Q.** And the EC50 [17]?
**A.** 4.03 nM

**Q.** And the “Top (MFI)” value [17]?
**A.** 28200 MFI

**Q.** And the “ADCC reporter EC50” value [3]?
**A.** 2.83 nM

**Q.** And the “ADCC reporter Top (MFI)” value [3]?
**A.** 114000 MFI

**Q.** What about the EC50 [4] of the same molecule?
**A.** 0.7 nM

**Q.** And the “Top (MFI)” value [4]?
**A.** 13800 MFI

**Q.** And the EC50 [5]?
**A.** 4.03 nM

**Q.** And the EC50 [6]?
**A.** 3.9 nM

**Q.** What about the “Top (MFI)” value [6] of the same molecule?
**A.** 39400 MFI

**Q.** What about the EC50 [7] of the same molecule?
**A.** 1.48 nM

**Q.** What about the “Top (MFI)” value [7] of the same molecule?
**A.** 30400 MFI

**Q.** And the EC50 [8]?
**A.** 7.5 nM

**Q.** What about the “Top (MFI)” value [8] of the same molecule?
**A.** 75200 MFI

**Q.** And the EC50 [9]?
**A.** 2.79 nM

**Q.** And the Top [9]?
**A.** 35600 MFI

From patent US20240301052A1 (LANOVA MEDICINES DEVELOPMENT, published 2024)
